Data published in US20060078559A1 (EUROSCREEN S A, published 2006).
One block for each molecule: values may come before it. Where no end group is shown, it is not given here. [ ]: non-standard residue; d: D form. The star is where a group is joined. For = O=C*

Key:
[1] = molecular target: T1, human formyl peptide receptor-like 2 (FPRL2) (human) (UniProt P25089); assay: cell-based or functional assay
T1 sequence: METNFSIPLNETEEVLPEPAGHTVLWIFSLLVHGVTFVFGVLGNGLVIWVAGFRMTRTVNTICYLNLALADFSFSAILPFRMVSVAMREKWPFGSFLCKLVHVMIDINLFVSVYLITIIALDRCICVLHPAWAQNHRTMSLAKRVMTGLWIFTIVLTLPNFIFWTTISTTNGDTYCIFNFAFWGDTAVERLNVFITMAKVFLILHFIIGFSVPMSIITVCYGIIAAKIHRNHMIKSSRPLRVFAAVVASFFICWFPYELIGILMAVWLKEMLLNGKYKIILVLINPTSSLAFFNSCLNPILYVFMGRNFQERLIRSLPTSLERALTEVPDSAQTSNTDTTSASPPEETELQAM

[2] = molecular target: T2, human formyl peptide receptor-like 2 (FPRL2) (human, UniProt P25089 1-353); assay: binding assay on FPRL2-expressing CHO-K1 cells
T2 construct: Expressed on CHO-K1 cells with or without G alpha 16 and apoaequorin; Also detected on monocyte-derived dendritic cells; also called FPR-like 2; FPRL2 receptor
T2 sequence: T1 sequence

human FPRL1 (FPR-like 1) [3] = molecular target: T3, human FPRL1 (FPR-like 1) (human, UniProt P25090 1-351); assay: cell-based or functional assay
T3 sequence: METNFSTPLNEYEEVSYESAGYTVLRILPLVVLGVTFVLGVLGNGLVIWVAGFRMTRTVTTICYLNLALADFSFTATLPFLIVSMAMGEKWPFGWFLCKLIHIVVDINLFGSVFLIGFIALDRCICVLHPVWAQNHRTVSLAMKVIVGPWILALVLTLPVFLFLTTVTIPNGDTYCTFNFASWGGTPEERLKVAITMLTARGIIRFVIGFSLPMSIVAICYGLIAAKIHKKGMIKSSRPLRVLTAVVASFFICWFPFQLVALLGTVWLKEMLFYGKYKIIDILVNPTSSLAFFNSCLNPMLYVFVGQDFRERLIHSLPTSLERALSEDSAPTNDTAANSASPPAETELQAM

[4] = molecular target: T4, human FPR (formyl peptide receptor) (human, UniProt P21462 1-350); assay: cell-based or functional assay
T4 chain: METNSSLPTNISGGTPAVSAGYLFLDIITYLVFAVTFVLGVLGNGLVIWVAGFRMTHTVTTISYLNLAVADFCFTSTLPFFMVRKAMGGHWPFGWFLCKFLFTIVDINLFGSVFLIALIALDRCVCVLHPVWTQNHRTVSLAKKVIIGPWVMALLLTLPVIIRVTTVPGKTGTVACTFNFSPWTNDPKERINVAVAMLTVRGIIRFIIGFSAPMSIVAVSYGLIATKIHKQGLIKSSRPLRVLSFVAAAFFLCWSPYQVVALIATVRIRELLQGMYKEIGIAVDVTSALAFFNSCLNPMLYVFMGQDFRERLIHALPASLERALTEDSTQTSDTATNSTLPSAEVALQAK

[5] = molecular target: T4, human FPR (formyl peptide receptor); assay: competition radioligand binding on FPR-expressing CHO-K1 cells, tracer [125I]-WKYMVm
Description: (§1) FPRL2, FPRL1 and FPR-expressing CHO-K1 cells were plated in 24 wells plates (200,000 cells per well for FPRL2, and 100,000 cells per well for the two other receptors). The next day, the cells were washed twice with a KRH buffer containing 280 mM saccharose and, for FPRL1 and FPR, 0.1% NaN₃. […] Cells were washed twice with ice cold buffer, total radioactivity was recovered with 1 M NaOH and counted in a gamma counter for 2 min.

[6] = molecular target: T2, human formyl peptide receptor-like 2 …; assay: competition binding on FPRL2-expressing CHO-K1 cells, tracer F2L-[125I]Tyr
Description: as §1
The EC50 and IC50 parameters of the dose-response curves were determined by non-linear regression using the Graphpad Prism software. The results represent the mean pEC50 or pIC50 (−Log values of EC50 or IC50 expressed in Mol/L) ± s.e.m. for at least three independent experiments (n).

[7] = molecular target: T2, human formyl peptide receptor-like 2 …; assay: cell-based or functional assay
human FPRL1 (FPR-like 1) [8] = molecular target: T3, human FPRL1 (FPR-like 1); assay: competition radioligand binding on FPRL1-expressing CHO-K1 cells, tracer [125I]-WKYMVm
Description: as §1

human FPRL1 (FPR-like 1) [9] = molecular target: T3, human FPRL1 (FPR-like 1); assay: cell-based or functional assay; remark: listed apart in the source
human FPRL1 (FPR-like 1) [10] = molecular target: T3, human FPRL1 (FPR-like 1); assay: cell-based or functional assay; remark: listed apart in the source
[11] = molecular target: T4, human FPR (formyl peptide receptor); assay: cell-based or functional assay
[12] = molecular target: T4, human FPR (formyl peptide receptor); assay: cell-based or functional assay
[13] = molecular target: T1, human formyl peptide receptor-like 2 (FPRL2) (human); assay: competition binding on FPRL2-expressing CHO-K1 cells, tracer F2L-[125I]Tyr

EC50, aequorin-based functional assay (native fraction A1) [1]: 200000 pM
Molecule: A1, about 6 kD peptide of porcine heme-binding protein purified from porcine spleen (from UniProt P80015)

binding result [2]: no binding
B1: F2L[7-21] (peptide)
peptide: NSLFGSVETWPWQVL
notes: Synthetic; also called [7-21]F2L; truncated F2L variant lacking the first six aminoacids

EC50 (read off the curve), aequorin luminescence [FPRL1] (human FPRL1 (FPR-like 1) [3]): ~40 pM
EC50 (read off the curve), aequorin luminescence [FPR] [4]: ~700 pM
IC50 (read off the curve) [5]: ~70000 pM
pIC50 (binding assay) [6]: < 6 -Log of IC50 in Mol/L
pEC50 (aequorin assay) [7]: < 6 -Log of EC50 in Mol/L
pEC50 (aequorin assay) (-Log of EC50 in Mol/L) [1]: < 6
pEC50 (cAMP assay) (-Log of EC50 in Mol/L) [1]: < 6
IC50 (read off the curve) (human FPRL1 (FPR-like 1) [8]): ~20000 pM
B2: WKYMVm (peptide)
peptide: WKYMV[dM]
notes: Bought from Phoenix Pharmaceuticals; also called W-hexapeptide; synthetic W peptide

EC50 (read off the curve), aequorin luminescence [FPRL1] (human FPRL1 (FPR-like 1) [3]): ~500 pM
EC50 (read off the curve), inhibition of cAMP accumulation [FPRL1] (human FPRL1 (FPR-like 1) [9]): ~700 pM
pIC50 (binding assay) [6]: < 6 -Log of IC50 in Mol/L
pEC50 (aequorin assay) [7]: < 6 -Log of EC50 in Mol/L
pEC50 (cAMP assay) [7]: < 6 -Log of EC50 in Mol/L
pEC50 (aequorin assay) (human FPRL1 (FPR-like 1) [10]): 9.27 -Log of EC50 in Mol/L
pEC50 (cAMP assay) (human FPRL1 (FPR-like 1) [10]): 9.23 -Log of EC50 in Mol/L
pEC50 (aequorin assay) [11]: < 6 -Log of EC50 in Mol/L
pEC50 (cAMP assay) [11]: < 6 -Log of EC50 in Mol/L
Molecule: MLWRRKIGPQMTLSHAAG (also called CCL23-derived SHAAG peptide) [SHAAG peptide derived from CCL23 N-terminus]

EC50 (read off the curve), aequorin luminescence [FPR] [4]: ~700 pM
EC50 (read off the curve), inhibition of cAMP accumulation [FPR] [12]: ~100 pM
pEC50 (aequorin assay) (human FPRL1 (FPR-like 1) [10]): 5.94 -Log of EC50 in Mol/L
pEC50 (cAMP assay) (human FPRL1 (FPR-like 1) [10]): < 6 -Log of EC50 in Mol/L
pEC50 (aequorin assay) [11]: 9.39 -Log of EC50 in Mol/L
pEC50 (cAMP assay) [11]: 10.2 -Log of EC50 in Mol/L
pEC50 (aequorin assay) (-Log of EC50 in Mol/L) [1]: < 6
pEC50 (cAMP assay) (-Log of EC50 in Mol/L) [1]: < 6
pIC50 (binding assay) (-Log of IC50 in Mol/L) [13]: < 6
Molecule: For-Met-Leu-Phe [FMLP (formyl-methionine-leucyl-phenylalanine)]
